The results in this text go back to article PMC6102588, “Quaternary Structure, Salt Sensitivity, and Allosteric Regulation of β-AMYLASE2 From Arabidopsis thaliana” (Frontiers in Plant Science, 2018).

The target in data set [1] is BAM2 N-terminal deletion mutant (NDel), lacking the acidic region (Arabidopsis thaliana) (UniProt O65258). Put plainly: SEC-MALS; proteins at 1-2 mg mL^-1 injected into a 4.6 x 300 mm size-exclusion column, 0.5 mL min^-1, 10 mM MOPS, pH 7, 250 mM KCl; masses are averages, n = 3. A general note: Size exclusion chromatography separates by hydrodynamic size, large species first.

Data set [2] concerns the molecule itself. The description is as above.

Usually stoichiometry N stands for the number of molecules, sites or subunits per partner or assembly. Molecule “BAM2 N-terminal deletion mutant (NDel), lacking the acidic region (from UniProt O65258 86-542) (enzyme)” yielded a stoichiometry N in data set [1] of 4.

B1: Arabidopsis thaliana β-AMYLASE2 (BAM2), wild type, without chloroplast transit peptide (enzyme, UniProt O65258 56-542, looked up)
chain: AESTEEDRVPIDDDDDSTDQLVDEEIVHFEERDFAGTACVPVYVMLPLGVIDMNSEVVEPEELLDQLRTLKSVNVDGVMVDCWWGIVESHTPQVYNWSGYKKLFQMIRELGLKIQVVMSFHECGGNVGDDVHIQIPEWVREIGQSNPDIYFTDSAGRRNTECLTWGIDKQRVLRGRTALEVYFDYMRSFRVEFDEFFEEKIIPEIEVGLGPCGELRYPSYPAQFGWKYPGIGEFQCYDKYLMNSLKEAAEVRGHSFWGRGPDNTETYNSTPHGTGFFRDGGDYDSYYGRFFLNWYSRVLIDHGDRVLAMANLAFEGTCIAAKLSGIHWWYKTASHAAELTAGFYNSSNRDGYGPIAAMFKKHDAALNFTCVELRTLDQHEDFPEALADPEGLVWQVLNAAWDASIPVASENALPCYDREGYNKILENAKPLTDPDGRHLSCFTYLRLNPTLMESQNFKEFERFLKRMHGEAVPDLGLAPGTQETNPE
notes: β-amylase 2 (BAM2), Arabidopsis thaliana, NP_191958.3, lacking its predicted 55 amino acid N-terminal chloroplast transit peptide; the start at residue 56 is worked out from that statement; Expression vector in pETDuet-1; Predicted monomer mass without transit peptide is 57.1 kDa; also called WT BAM2; WT; source: E. coli BL21+, purified by the N-terminal 6-His tag
In the case of B1, the “stoichiometry N” value in data set [2] is 4.

B2: BAM2 W456A mutant (Interface A) (enzyme, Arabidopsis thaliana, UniProt O65258 56-542, looked up)
chain: AESTEEDRVPIDDDDDSTDQLVDEEIVHFEERDFAGTACVPVYVMLPLGVIDMNSEVVEPEELLDQLRTLKSVNVDGVMVDCWWGIVESHTPQVYNWSGYKKLFQMIRELGLKIQVVMSFHECGGNVGDDVHIQIPEWVREIGQSNPDIYFTDSAGRRNTECLTWGIDKQRVLRGRTALEVYFDYMRSFRVEFDEFFEEKIIPEIEVGLGPCGELRYPSYPAQFGWKYPGIGEFQCYDKYLMNSLKEAAEVRGHSFWGRGPDNTETYNSTPHGTGFFRDGGDYDSYYGRFFLNWYSRVLIDHGDRVLAMANLAFEGTCIAAKLSGIHWWYKTASHAAELTAGFYNSSNRDGYGPIAAMFKKHDAALNFTCVELRTLDQHEDFPEALADPEGLVWQVLNAAADASIPVASENALPCYDREGYNKILENAKPLTDPDGRHLSCFTYLRLNPTLMESQNFKEFERFLKRMHGEAVPDLGLAPGTQETNPE
notes: β-amylase 2 (BAM2), Arabidopsis thaliana, NP_191958.3, lacking its predicted 55 amino acid N-terminal chloroplast transit peptide, with Trp456 changed to Ala; Made by QuikChange mutagenesis in the WT pETDuet-1 construct (Monroe et al., 2017); also called B2_W456A; source: E. coli BL21+, purified by the N-terminal 6-His tag
B2: the “stoichiometry N” value in data set [2] turned out to be 2.

B3: BAM2 F238A mutant (Interface B) (enzyme, Arabidopsis thaliana, UniProt O65258 56-542, looked up)
chain: AESTEEDRVPIDDDDDSTDQLVDEEIVHFEERDFAGTACVPVYVMLPLGVIDMNSEVVEPEELLDQLRTLKSVNVDGVMVDCWWGIVESHTPQVYNWSGYKKLFQMIRELGLKIQVVMSFHECGGNVGDDVHIQIPEWVREIGQSNPDIYFTDSAGRRNTECLTWGIDKQRVLRGRTALEVYADYMRSFRVEFDEFFEEKIIPEIEVGLGPCGELRYPSYPAQFGWKYPGIGEFQCYDKYLMNSLKEAAEVRGHSFWGRGPDNTETYNSTPHGTGFFRDGGDYDSYYGRFFLNWYSRVLIDHGDRVLAMANLAFEGTCIAAKLSGIHWWYKTASHAAELTAGFYNSSNRDGYGPIAAMFKKHDAALNFTCVELRTLDQHEDFPEALADPEGLVWQVLNAAWDASIPVASENALPCYDREGYNKILENAKPLTDPDGRHLSCFTYLRLNPTLMESQNFKEFERFLKRMHGEAVPDLGLAPGTQETNPE
notes: β-amylase 2 (BAM2), Arabidopsis thaliana, NP_191958.3, lacking its predicted 55 amino acid N-terminal chloroplast transit peptide, with Phe238 changed to Ala; Made by QuikChange mutagenesis in the WT pETDuet-1 construct (Monroe et al., 2017); also called B2_F238A; source: E. coli BL21+, purified by the N-terminal 6-His tag
Regarding B3, in data set [2], the “stoichiometry N” value was determined as 2.
